{
  "source": "paper PMC9237740",
  "about": "“SNARE SYP132 mediates divergent traffic of plasma membrane H^+-ATPase AHA1 and antimicrobial PR1 during bacterial pathogenesis” (Plant Physiology, 2022)",
  "biological_target": "T1, GFP-fused SYP132 (SYNTAXIN OF PLANTS132) expressed under its native promoter (Arabidopsis thaliana, UniProt Q8VZU2 1-304)",
  "T1 construct": "SYNTAXIN OF PLANTS132 (SYP132), Arabidopsis thaliana, At5g08080; also called GFP-SYP132; SYP132p:GFP-SYP132; source: Arabidopsis SYP132p:GFP-SYP132 transgenic line, in leaf lysate",
  "T1 sequence (looked up)": "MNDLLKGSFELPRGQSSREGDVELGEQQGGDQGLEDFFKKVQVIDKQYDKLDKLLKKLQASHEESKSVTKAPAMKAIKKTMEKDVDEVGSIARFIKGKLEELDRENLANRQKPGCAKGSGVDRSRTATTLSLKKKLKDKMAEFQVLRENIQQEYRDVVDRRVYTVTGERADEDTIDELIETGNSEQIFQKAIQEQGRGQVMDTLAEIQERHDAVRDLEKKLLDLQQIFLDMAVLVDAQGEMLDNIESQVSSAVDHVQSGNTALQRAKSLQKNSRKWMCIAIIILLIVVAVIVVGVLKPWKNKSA",
  "assay": "co-IP; GFP-Trap agarose beads saturated with GFP-tagged bait from Arabidopsis leaf lysates; plants treated 24 h without or with Pst DC3000 in 10 mM MgCl2; binding buffer PBS pH 7.45, 0.01% Triton X-100, 0.05 mM DTT, 0.01% CHAPS, 1 h at 4°C; washes with additional 150 mM NaCl; bound proteins detected by immunoblot",
  "conditions": "partners not purified",
  "data": [
    {"binder": "PM H+-ATPase 1 (AHA1), native (natural protein, UniProt P20649 1-949, looked up, Plasma membrane H+-ATPase 1 (AHA1), Arabidopsis thaliana, At2g18960; detected with anti-AHA1 antibodies at ~100 kDa; also called AHA1 isoform; plasma membrane H+-ATPase AHA1; source: endogenous, Arabidopsis leaf lysate) MSGLEDIKNETVDLEKIPIEEVFQQLKCTREGLTTQEGEDRIVIFGPNKLEEKKESKILKFLGFMWNPLSWVMEAAALMAIALANGDNRPPDWQDFVGIICLLVINSTISFIEENNAGNAAAALMAGLAPKTKVLRDGKWSEQEAAILVPGDIVSIKLGDIIPADARLLEGDPLKVDQSALTGESLPVTKHPGQEVFSGSTCKQGEIEAVVIATGVHTFFGKAAHLVDSTNQVGHFQKVLTSIGNFCICSIAIGIAIEIVVMYPIQHRKYRDGIDNLLVLLIGGIPIAMPTVLSVTMAIGSHRLSQQGAITKRMTAIEEMAGMDVLCSDKTGTLTLNKLSVDKNLVEVFCKGVEKDQVLLFAAMASRVENQDAIDAAMVGMLADPKEARAGIREVHFLPFNPVDKRTALTYIDSDGNWHRVSKGAPEQILDLANARPDLRKKVLSCIDKYAERGLRSLAVARQVVPEKTKESPGGPWEFVGLLPLFDPPRHDSAETIRRALNLGVNVKMITGDQLAIGKETGRRLGMGTNMYPSAALLGTDKDSNIASIPVEELIEKADGFAGVFPEHKYEIVKKLQERKHIVGMTGDGVNDAPALKKADIGIAVADATDAARGASDIVLTEPGLSVIISAVLTSRAIFQRMKNYTIYAVSITIRIVFGFMLIALIWEFDFSAFMVLIIAILNDGTIMTISKDRVKPSPTPDSWKLKEIFATGIVLGGYQAIMSVIFFWAAHKTDFFSDKFGVRSIRDNNDELMGAVYLQVSIISQALIFVTRSRSWSFVERPGALLMIAFVIAQLVATLIAVYADWTFAKVKGIGWGWAGVIWIYSIVTYFPQDILKFAIRYILSGKAWASLFDNRTAFTTKKDYGIGEREAQWAQAQRTLHGLQPKEDVNIFPEKGSYRELSEIAEQAKRRAEIARLRELHTLKGHVESVAKLKGLDIDTAGHHYTV", "values": [
      {"measurement": "fold change of Co-IP bound/bait after Pst DC3000 infection relative to buffer control", "result": "~2.5", "unit": "fold"}
    ]}
  ]
}
